Reference: the supplement of paper PMC10567573
± gives the standard deviation.

Assay: protein stability index of a GFP-peptide fusion (GPS, HEK-293T) (PSI 1-6); higher = more stable
[1] = treatment: DMSO, c terminus: a fixed tail appended
[2] = treatment: MLN4924 1 uM, 8 h, c terminus: a fixed tail appended
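Further: 24-mer peptide tiles fused after GFP, lentivirally expressed, FACS-sorted into six equal bins by GFP/DsRed ratio, decoded by Illumina sequencing, PSI is the read-weighted mean bin number.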

Sequence | protein stability index [1] | protein stability index [2] | protein stability index (treatment: DMSO, c terminus: native) | protein stability index (treatment: MLN4924 1 uM, 8 h, c terminus: native)
TLMTMAIRIIDRALKEDFGFKHRL [PRIM1] | 2.99 ± 0.62 | 2.9 ± 0.54 |  | 
NNLLSAPPPDVTQLTPPSHDLTDN [ANKRD17] | 5.12 ± 0.28 | 5.18 ± 0.18 |  | 
LNECVGTAYWALAGSIGGLFFAVG [SLC22A15] | 3.19 ± 1.4 | 3.72 ± 0.21 |  | 
DASILTEMPTQPGKPLIPPMNRRN [NETO1] | 4.45 ± 0.25 | 4.64 ± 0.13 |  | 
RTKSRTWAGEKSKREMYSRLKKL [CDC25A] |  |  | 4.36 ± 0.32 | 4.51 ± 0.38
LLNPEKYKAKSRSPGSPVGEGTGS [ADD1] | 4.52 ± 0.26 | 4.55 ± 0.21 |  | 
AYIATQGPLAETTEDFWRMLWEHN [PTPRD] | 2.79 ± 0.46 | 2.8 ± 0.37 |  | 
QEKEELRELNDRLAVYIDKVRSLE [LMNB1] | 3.72 ± 0.31 | 3.9 ± 0.2 |  | 
EFSSVGTEMIITKAGRRMFPACRV [TBX6] | 2.7 ± 0.21 | 2.66 ± 0.34 |  | 
EQLAALSQAPVNKPKKKKEKKEKE [BRD3] | 5.38 ± 0.2 | 5.67 ± 0.2 |  | 
AIIISTIVLDRALHIPMYFFLAIL [OR10K2] | 3.04 ± 0.47 | 3.04 ± 0.33 |  | 
LLDLDPEVECLKANTNEVLWAVVA [GOLPH3] | 1.94 ± 0.21 | 2.22 ± 0.41 |  | 
QSDVGVAVFENKIYVVGGYSWNNR [KLHL13] | 2.19 ± 0.34 | 2.26 ± 0.12 |  | 
ENIDSLYNVNLSKGRAALSATVPR [SCNN1D] | 3.94 ± 0.39 | 4.04 ± 0.24 |  | 
QIRTVIQYQTVRYDILPLSPVSRN [CTDNEP1] | 2.36 ± 0.2 | 2.26 ± 0.13 |  | 
IYGHVTLMRAQRNYMVQTEDQYIF [PTPRD] | 2.61 ± 0.58 | 2.87 ± 1.1 |  | 
IVGSQGAEGALEEVPLEVLRQRES [TBC1D10A] | 5.17 ± 0.34 | 5.31 ± 0.26 |  | 
CVHPRGGVIQSVSSWKHGSGTQYV [C18orf25] | 2.58 ± 0.42 | 2.32 ± 0.39 |  | 
TADRIIRVYDGREILTCGRDGEPE [RBBP5] | 4.55 ± 0.12 | 4.49 ± 0.31 |  | 
CQNKCRIALVENIPEGLNYSENAP [PLD5] | 3.03 ± 0.45 | 3.23 ± 0.64 |  | 
KPIHTTILNPHVHVIGEDAACIAY [CAMK2B] | 2.77 ± 0.26 | 2.98 ± 0.18 |  | 
MAGRLMIRKLVAEKLNIPWNHIRL [AASDHPPT] | 2.4 ± 0.94 | 2.12 ± 0.34 |  | 

Sequence | protein stability index [1] | protein stability index [2] | protein stability index (treatment: DMSO, c terminus: native) | protein stability index (treatment: MLN4924 1 uM, 8 h, c terminus: native)
SEAEEALYLIAKRNRKLKCTFSLT [SLC22A15] | 2.52 ± 0.15 | 2.56 ± 0.12 |  | 
DSQAPAGSLDLVPGGLTLEEHSLE [SPDEF] | 5.36 ± 0.21 | 5.45 ± 0.33 |  | 
KDMSESQDEVPDEVENQFILRLPL [TAF7L] | 4.41 ± 0.26 | 4.85 ± 0.15 |  | 
DIRLTLMEEVLLLGLKDKEGYTSF [GOLPH3L] | 2.26 ± 0.44 | 2.2 ± 0.55 |  | 
GIREASSGGGGSSSNFHINVEESV [KRT15] | 4.92 ± 0.18 | 5.11 ± 0.28 |  | 
DSDEATAARLLFNMAGVTFRKFIP [DCTD] | 2.55 ± 0.19 | 2.58 ± 0.59 |  | 
YSGTFALIGAAAFLGGVVRMTISL [CLCN6] | 3.78 ± 0.31 | 2.86 ± 0.15 |  | 
ELVLCVLVSIRNNRNLQKFSLFGD [FBXO33] | 2.87 ± 0.54 | 2.86 ± 0.34 |  | 
SYSTSEQAELSYKKVSEGPPLRLW [DLC1] | 2.73 ± 0.36 | 3.26 ± 0.18 |  | 
SSLSSESSESSDAGLCMDSPSPMD [CDC25B] | 5.462 ± 0.013 | 5.37 ± 0.23 |  | 
GRDALLDQIRQGIQLKSVADGQES [WASL] | 5.43 ± 0.36 | 5.22 ± 0.63 |  | 
MNAVGSPEGQELQKLGSGAWDNPA [PKD2L1] | 4.59 ± 0.2 | 4.35 ± 0.27 |  | 
CMAFELATGDYLFEPHSGEDYSRD [SRPK2] | 3.87 ± 0.47 | 4.12 ± 0.25 |  | 
APRGKNGFTPLHMAVDKDTTNVGR [FEM1A] | 4.37 ± 0.19 | 4.44 ± 0.18 |  | 
KMNPKLKTLLAIGGWNFSTQKFTD [CHIT1] | 2.37 ± 0.11 | 2.3 ± 0.39 |  | 
ICFKEMLANSWNCLPKHLLHSVNQ [KLHDC2] | 2.73 ± 0.43 | 2.63 ± 0.65 |  | 
MDTAMEVVKFVNFLLVNGFQTAID [TRAF3IP2] | 2.73 ± 1.1 | 2.79 ± 0.086 |  | 
TLKEAYVQKLVKVCTDTDRWSLIS [TENT5C] | 2.58 ± 0.4 | 2.4 ± 0.41 |  | 
RLKFPIDYPYSPPAFRFLTKMWHP [CDC34] | 2.49 ± 0.48 | 2.09 ± 0.15 |  | 
LPGNTTEATPRSLRASGSLCGPHA | 4.46 ± 0.38 | 4.28 ± 0.3 |  | 
QRPFIRMSWEKEEGKSRHVDFQCV [BTBD10] | 2.95 ± 0.24 | 3.04 ± 0.37 |  | 
EPEDMETLEEKFSDVHPVALNFMK [CDKL4] | 4.68 ± 0.3 | 4.89 ± 0.19 |  | 

Sequence | protein stability index [1] | protein stability index [2] | protein stability index (treatment: DMSO, c terminus: native) | protein stability index (treatment: MLN4924 1 uM, 8 h, c terminus: native)
CLGVHCDFHQGLLSFYNARTKQVL [FSD1] | 2.42 ± 0.69 | 2.27 ± 0.18 |  | 
QNRVFAYLCKRVPHTVLDRQLLCL [CEP70] | 2.46 ± 0.76 | 2.46 ± 0.59 |  | 
EGYILREDGKTCRRKDVCQAIDHG [MATN2] | 4.31 ± 0.63 | 4.44 ± 0.22 |  | 
GEALGRDHSEHLSGSSYRDALQRY [RBMY1A1] | 4.33 ± 0.22 | 4.26 ± 0.29 |  | 
ADGLLQLGPLGSTAFLPDSKCLVD [GALNT9] | 3.97 ± 0.16 | 4.09 ± 0.19 |  | 
SRDRRRSSDRSRDSSHERTESQLT [BTBD10] | 5.45 ± 0.32 | 5.5 ± 0.22 |  | 
AEEKERRRKEYDALKAAKREQEKK [LRRC59] | 5.31 ± 0.26 | 5.39 ± 0.12 |  | 
PQDSGTAAWKGRVLLPETQKRQQL [C22orf31] | 4.44 ± 0.17 | 4.27 ± 0.29 |  | 
DGSLILVSASRDKTLRVWDLKDDG [WSB1] | 2.74 ± 0.31 | 3.03 ± 0.21 |  | 
NLSKTQNMERFGEDNLEDDDVEMK [CDC14A] | 5.4 ± 0.061 | 5.4 ± 0.12 |  | 
CTMEPEPVQPGMLIDVCKYLGSLQ [TRIM35] | 2.43 ± 0.13 | 2.41 ± 0.22 |  | 
KRLREEEAARLFKQIVSAVAHCHQ [TRIB1] | 2.4 ± 0.36 | 2.4 ± 2 |  | 
TESSNTTIEDEDVKARKQEIIKVT [CAMK2D] | 5.21 ± 0.29 | 5.07 ± 0.25 |  | 
GRCGPQAARAAGRDVAAEAVARSP [POMT2] | 4 ± 0.35 | 3.63 ± 0.15 |  | 
LNSPPGPHSAKTEEHTTILRPSYT [CDC14A] | 4.41 ± 0.61 | 4.651 ± 0.039 |  | 
ASLLQPVTPLGTSRWRKISAALPY [NCF4] | 2.46 ± 0.4 | 2.61 ± 0.3 |  | 
KPPETSVPVVTPTASTAPPVPATA [SNAP91] | 5.34 ± 0.35 | 5.37 ± 0.18 |  | 
EAGASLVDQKLELNIVPRTKVVYL [PI4K2A] | 2.29 ± 0.26 | 2.34 ± 0.47 |  | 
AALPLAAEETANLPPSPPPSPASE [MAP2] | 5.27 ± 0.13 | 5.09 ± 0.18 |  | 
KYEAQNIVNSTEESDDAFDTVTIP [IQUB] | 5.27 ± 0.22 | 5.09 ± 0.45 |  | 
VLMWTMLFLGQGIQVSLYCQEWYA [SOAT2] | 2.87 ± 0.36 | 3.3 ± 0.6 |  | 
